Test results from US11191771B2, “Combinations of PBD-based antibody drug conjugates with FLT3 inhibitors” (Seagen Inc., priority 2016, dated 2021).

Tested on: FLT3/ITD MV4-11 xenografts
Assay: Survival of FLT3/ITD MV4-11 xenografts
Format: in vivo
Details: MV4-11 s.c. in SCID mice, quizartinib 0.4 mg/kg daily for 21 days by mouth
Method: Five million MV4-11 cells were implanted subcutaneously in SCID mice. Tumor growth was monitored throughout the course of the study with bilateral vernier caliper measurements, and mean tumor volumes were calculated using the equation (0.5×[length×width^2]).
Mice with advanced tumor burden were sacrificed upon reaching tumor volumes of greater than 400 mm^3 or showing symptoms of hind limb paralysis, cranial swelling, and/or moribundity.

B1: SGN-CD33A: h2H12EC antibody conjugated to SGD-1910, the pyrrolobenzodiazepine dimer drug-linker (conjugate, chains of the INN, looked up)
VH: QVQLVQSGAEVKKPGASVKVSCKASGYTFTNYDINWVRQAPGQGLEWIGWIYPGDGSTKYNEKFKAKATLTADTSTSTAYMELRSLRSDDTAVYYCASGYEDAMDYWGQGTTVTVSS
VL: DIQMTQSPSSLSASVGDRVTINCKASQDINSYLSWFQQKPGKAPKTLIYRANRLVDGVPSRFSGSGSGQDYTLTISSLQPEDFATYYCLQYDEFPLTFGGGTKVEIK
modifications: PBD dimer payload (talirine)
ADC 10 mcg/kg once i.p., FIG. 5
  effect on progression / survival: induced delay of progression
SGN-CD33A or SGN-CD123A 10 mcg/kg once i.p., untreated 23 days
  median survival time: 31 days
